Measured values published in paper PMC11325027.
Where “and” joins values, the source holds several entries; their conditions need not be identical. Identical values can stand only once.

Tests used:
[1] = target: E. coli initiation factor 2 (IF2) (E. coli) (UniProt P0A705); experiment: BLI; biotinylated protein ([…] load) immobilised on High Precision Streptavidin (SAX) tips, E. coli 70S ribosome as analyte; Octet RED96e, 30 °C, 1,000 rpm; ribosome buffer 20 mM Tris HCl pH 7.5, 60 mM NH4Cl, 7.5 mM Mg(CH3COO)2, 0.5 mM EDTA, 6 mM βME with 0.1% BSA and 0.02% Tween-20; IF2 pre-incubated with GDPNP; Kd from the fit of equilibrium responses, double-referenced
[2] = target: P. falciparum translation enhancing factor C-terminal domain (PTEF-CTD) (P. falciparum); experiment: as above

E. coli 70S ribosome (complex)
Kd [1]: 0.0093 µM and 0.0027 µM and 0.0015 µM
Kd [2]: 0.426 µM and 0.313 µM and 0.515 µM
